These results are taken from patent US20250295803A1, “5T4 ANTIBODY-DRUG CONJUGATES AND USES THEREOF” (EXELIXIS, INC., priority 2022, published 2025).

B1: mAbA17 (antibody, V domains shown)
VH: EVQLVESGGGLVQPGGSLRLSCAASGFTFSRYWIHWVRQAPGKGLEWVAAIFPYSGSTLYADSVKGRFTISADTSKNTAYLQMNSLRAEDTAVYYCARSPSRSILPSGLDYWGQGTLVTVSS
VL: DIQMTQSPSSLSASVGDRVTITCRASQSVSSAVAWYQQKPGKAPKLLIYSASSLYSGVPSRFSGSRSGTDFTLTISSLQPEDFATYYCQQGDGSPYTFGQGTKVEIKR
notes: also called Antibody mAbA17
B2: mAbA15 (antibody, V domains shown)
VH: EVQLVESGGGLVQPGGSLRLSCAASGFTFSSYYIHWVRQAPGKGLEWVAYITSTGSYTEYADSVKGRFTISADTSKNTAYLQMNSLRAEDTAVYYCARYDRSTRYSGLDYWGQGTLVTVSS
VL: B1 VL with G91A, D92Y, G93A, S94T, Y96V
notes: also called Antibody mAbA15
B3: mAbA4 (antibody, V domains shown)
VH: EVQLVESGGGLVQPGGSLRLSCAASGFTFSRYYIHWVRQAPGKGLEWVAFISPGGSYTYYADSVKGRFTISADTSKNTAYLQMNSLRAEDTAVYYCAREYYSMGVLDYWGQGTLVTVSS
VL: B1 VL with G91A, D92Y, G93E
notes: also called Antibody mAbA4
B4: mAbA4: 5T4 antibody comprising VH of SEQ ID NO:25 and VL of SEQ ID NO:26 (antibody, V domains shown)
VH: B3 VH
VL: DIQMTQSPSSLSASVGDRVTITCRASQSVSSAVAWYQQKPGKAPKLLIYSASSLYSGVPSRFSGSRSGTDFTLTISSLQPEDFATYYCQQAYESPYTFGQGTKVEIK
modifications: Antibody mAbA4 VH Sequence; Antibody mAbA4 VL Sequence
B5: mAbA15: 5T4 antibody comprising VH of SEQ ID NO:44 and VL of SEQ ID NO:45 (antibody, V domains shown)
VH: B2 VH
VL: B4 VL with E93A, S94T, Y96V
modifications: Antibody mAbA15 VH Sequence; Antibody mAbA15 VL Sequence
B6: mAbA17: 5T4 antibody comprising VH of SEQ ID NO:62 and VL of SEQ ID NO:63 (antibody, V domains shown)
VH: B1 VH
VL: B4 VL with A91G, Y92D, E93G
modifications: Antibody mAbA17 VH Sequence; Antibody mAbA17 VL Sequence

A word on the EC50: it is the concentration at which the effect is half-maximal. Usually Kd stands for the concentration at which binding is half-saturated. Higher therefore signals a looser complex.

Changes are numbered by the printed parent chain.

In one test the target is T1, unconjugated human TPBG/5T4 protein with a c-terminal polyhistidine and Avi tag (AcroBiosystems Cat. No. … (human, UniProt Q13641 32-355)).
T1 construct: Bought protein; also called Acro TPGH52E5; Acro Catalog No. TPGH52E; not shown: C-terminal polyhistidine and Avi tag
T1 sequence: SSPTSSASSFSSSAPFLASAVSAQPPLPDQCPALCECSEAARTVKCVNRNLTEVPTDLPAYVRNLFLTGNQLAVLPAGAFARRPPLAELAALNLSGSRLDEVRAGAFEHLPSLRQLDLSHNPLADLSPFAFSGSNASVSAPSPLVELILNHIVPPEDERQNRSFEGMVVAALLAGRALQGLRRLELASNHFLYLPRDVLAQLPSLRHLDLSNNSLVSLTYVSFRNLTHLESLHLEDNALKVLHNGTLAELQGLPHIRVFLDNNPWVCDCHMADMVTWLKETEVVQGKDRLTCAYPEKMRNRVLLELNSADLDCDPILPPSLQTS
Description: ELISA on coated human 5T4 His-Avi (Acro TPG-H52E5); antibody condition: pH 8.5 Day 1. The procedure:
(§1) A. Normal Binding Unconjugated antibodies were tested for their ability to bind to human 5T4 (hu5T4) using ELISA. On Day 1, unconjugated human TPBG/5T4 protein with a c-terminal polyhistidine and Avi (AVITAG™) tag (AcroBiosystems (Newark, DE, USA), Cat. No. TPG-H52E5) was diluted 2 μg/mL in PBS, mixed thoroughly, plated 100 μL per well in a 96-well plate (Nunc MAXISORP®) and incubated overnight at 4° C.
The molecule B1 came in with a concentration for a half-maximal effect (EC50) of 0.174 nM.
Molecule B2 yielded an EC50 of 0.128 nM.
The same measure, in the same setting: for B3 the value was 0.127 nM.

A further test has as its target T1, unconjugated human TPBG/5T4 protein …. Description: ELISA on coated human 5T4 His-Avi (Acro TPG-H52E5); antibody condition: pH 8.5 Day 4. The procedure:
as §1
A general note: In an ELISA, binding on a coated surface is turned into a signal by an enzyme label.
As for B1, the 50% effective concentration (EC50) was 0.15 nM.
In turn, B2 displayed an EC50 of 0.133 nM.
B3 displayed an EC50 of 0.114 nM.

The next test has the same target. Put plainly: ELISA on coated human 5T4 His-Avi (Acro TPG-H52E5); antibody condition: pH 8.5 Day 14. The procedure: as §1
Consider B1, for which a half-maximal response (EC50) required 0.167 nM.
The same measure, in the same setting: the value for B2 was 0.131 nM; that for B3 was 0.136 nM.

For the next test, the target named is T2, human 5T4 produced internally (Lot 20-019-62) (human, UniProt Q13641 32-355).
T2 construct: 'also produced separately'; also called Internal (Lot 20-019-62)
T2 sequence: T1 sequence
Description: Octet, antibody on AHC sensors, human 5T4 in solution (monovalent); Internal Lot 20-019-62. Here is the method: Monovalent binding assays were employed to determine the relative affinity of each 5T4 binder obtained by the phage display in Example 1 to human 5T4. Human 5T4 was purchased from Acro Biosystems (Acro Catalog No. TPGH52E) and also produced separately. The monovalent interaction of binders to human 5T4 was monitored using an Octet (Pall ForteBio) instrument. For these assays, 36 nM antibody was immobilized on anti-human Fc (AHC) sensors in 1× kinetic buffer (ForteBio). The sensors were then dipped in wells containing a 3× serial dilution of human 5T4 ranging from 1 μM to 1.37 nM. The association was allowed to reach equilibrium. Sensors were then moved to wells containing only 1× kinetic buffer and allowed to dissociate to equilibrium. Association and dissociation rates were measured and from these, monovalent KDS were calculated using the onboard analysis software (ForteBio).
(In general: Biolayer interferometry detects binding as a change in optical thickness at a sensor tip.)
The molecule B1 showed a Kd of 9.34 nM.
On the same count and under the same terms, the value for B2 was 10.4 nM; that for B3 was 83 nM.

The next test addresses T1, unconjugated human TPBG/5T4 protein …. Put plainly: ELISA on coated human 5T4 His-Avi (Acro TPG-H52E5); antibody condition: PBS Time 0. Here is the method:
as §1
3. Oxidative Stress. Several unconjugated antibodies were tested for their ability to bind to 5T4 using ELISA in an oxidative environment. Solutions of 1 mg/mL to 10 mg/mL of antibody in 20 mM citrate/50 mM NaCl at a pH of 5.5 were prepared and stored at 37° C. for 1 to 2 weeks.
B1 had an EC50 of 0.198 nM.
The same measure, in the same setting: for B2 the value was 0.229 nM; for B3, 0.182 nM.

For another test the target is unchanged. Description: ELISA on coated human 5T4 His-Avi (Acro TPG-H52E5); antibody condition: PBS + H2O2 time 48 hr. Here is the method: as §1
3. Oxidative Stress. Several unconjugated antibodies were tested for their ability to bind to 5T4 using ELISA in an oxidative environment. […]
Take B1: the half-maximal effective concentration (EC50) is 0.207 nM.
Still for that read-out and setting: the value for B2 was 0.189 nM; that for B3 was 0.386 nM.

For another test the target is unchanged. Description: ELISA on coated human 5T4 His-Avi (Acro TPG-H52E5); antibody condition: pH 5.5 Day 14. Here is the method:
as §1
2. Low pH Stress Test. Several unconjugated antibodies were tested for their ability to bind to 5T4 using ELISA under acidic (low pH) conditions. […]
Molecule B1 showed an EC50 of 0.153 nM.
On the same count and under the same terms, the value for B2 was 0.138 nM; that for B3 was 0.122 nM.

The subject of a further test is HEK-cyno-5T4 cells. Description: Cell binding (flow cytometry), HEK-cyno-5T4 cells. The test is classed as cell-based. The procedure:
(§2) Antibodies that were selected for binding to 5T4, for example, such as those described in Example 2, were evaluated for binding to cells that express 5T4. Cells were harvested at 70-90% confluence on the day of the assay. In a v-bottom 96-well plate (Costar 3897), 100,000 cells per well were incubated with 50 μL per well 8- or 12-point antibody dilution series for 30 minutes at +4° C. After incubation, cells were washed once with PBS by centrifugation at 200×g for 5 minutes. Cells were then incubated with 50 μL per well of Alexa Fluor 488 Goat anti-human IgG Fab (Jackson Immuno Research 109-547-003) at 1:100 dilution for 30 minutes at +4° C. Cells were washed twice with PBS by centrifugation at 200×g for 5 minutes and were acquired on iQue Screener Plus (Sartorius). Mean fluorescence intensities of BL1 (Alexa-Fluor-488) channel were plotted against antibody concentrations to generate a dose response curve and EC50 values.
A general note: Flow cytometry measures light scatter and fluorescence of single cells or particles in a stream.
In the case of B4, the “binding to HEK-cyno-5T4 cells” value is listed as “binding”.
Same read-out and setting: the value for B5 was “binding”; that for B6 was “binding”.

The test system of a further test is MCF-7 cells. Put plainly: Cell binding (flow cytometry), MCF-7 cells. The test is classed as cell-based. Here is the method:
as §2
On to B4, for which the “binding to MCF-7 cells” value was “binding”.
Still for that read-out and setting: for B5 the value was “binding”; for B6, “binding”.
